We go through 1 molecule from patent US20080025968A1 (YEDA RESEARCH AND DEVELOPMENT, published 2008).

One assay concerns the target T1, IKK1, endogenous (human, UniProt O15111 1-745).
T1 construct: mature; also called IKKα
T1 sequence (looked up): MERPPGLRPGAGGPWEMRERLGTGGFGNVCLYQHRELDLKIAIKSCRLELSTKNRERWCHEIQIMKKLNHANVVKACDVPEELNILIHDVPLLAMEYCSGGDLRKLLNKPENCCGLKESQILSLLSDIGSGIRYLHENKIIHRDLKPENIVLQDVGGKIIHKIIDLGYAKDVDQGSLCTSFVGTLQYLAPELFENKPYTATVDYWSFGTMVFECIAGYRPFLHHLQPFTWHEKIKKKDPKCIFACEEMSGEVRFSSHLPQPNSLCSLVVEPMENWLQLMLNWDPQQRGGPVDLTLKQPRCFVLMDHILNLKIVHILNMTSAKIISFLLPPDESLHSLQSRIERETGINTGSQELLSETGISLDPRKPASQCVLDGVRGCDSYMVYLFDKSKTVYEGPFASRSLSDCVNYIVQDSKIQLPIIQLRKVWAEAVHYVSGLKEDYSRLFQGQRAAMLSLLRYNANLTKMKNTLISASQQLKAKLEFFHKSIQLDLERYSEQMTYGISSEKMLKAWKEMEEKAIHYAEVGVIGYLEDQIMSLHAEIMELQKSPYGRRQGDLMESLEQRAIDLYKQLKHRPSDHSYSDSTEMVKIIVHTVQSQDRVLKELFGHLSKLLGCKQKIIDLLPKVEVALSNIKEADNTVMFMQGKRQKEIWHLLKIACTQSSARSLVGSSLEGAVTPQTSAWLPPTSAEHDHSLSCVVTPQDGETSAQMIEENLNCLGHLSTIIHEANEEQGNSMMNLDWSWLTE
Nature of the assay: western blot of the p55 TNF receptor complex from Ramos cells after TNF (FIG. 5c).

The next assay concerns the target T2, IKK2, endogenous (human, UniProt O14920 1-756).
T2 construct: mature; also called IKKβ
T2 sequence (looked up): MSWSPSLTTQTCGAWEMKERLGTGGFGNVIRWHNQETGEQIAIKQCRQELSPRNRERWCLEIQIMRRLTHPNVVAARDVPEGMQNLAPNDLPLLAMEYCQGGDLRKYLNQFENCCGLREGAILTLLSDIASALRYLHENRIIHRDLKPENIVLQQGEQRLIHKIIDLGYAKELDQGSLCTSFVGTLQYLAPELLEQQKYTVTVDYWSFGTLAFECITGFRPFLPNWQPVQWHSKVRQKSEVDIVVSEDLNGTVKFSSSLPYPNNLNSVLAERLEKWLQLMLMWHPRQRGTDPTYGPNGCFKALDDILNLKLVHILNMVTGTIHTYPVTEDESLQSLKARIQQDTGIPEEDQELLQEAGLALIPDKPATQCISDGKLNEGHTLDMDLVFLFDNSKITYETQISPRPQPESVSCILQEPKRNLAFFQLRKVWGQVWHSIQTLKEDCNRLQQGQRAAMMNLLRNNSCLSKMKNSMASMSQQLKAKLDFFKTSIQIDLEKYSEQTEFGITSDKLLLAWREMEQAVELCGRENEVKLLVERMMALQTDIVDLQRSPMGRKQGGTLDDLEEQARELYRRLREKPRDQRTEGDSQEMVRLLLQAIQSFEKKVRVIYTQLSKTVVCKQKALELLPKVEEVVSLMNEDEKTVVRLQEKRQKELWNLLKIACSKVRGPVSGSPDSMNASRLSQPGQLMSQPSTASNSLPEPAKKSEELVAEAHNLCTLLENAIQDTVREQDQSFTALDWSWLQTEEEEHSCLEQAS
Described as above.

The target in assay [1] is T3, myc-NIK (NIK N-terminally fused to the myc tag) (human, UniProt Q99558 1-947).
T3 construct: Expressed in HEK293T cells for co-immunoprecipitation, the reporter test and the kinase test; also called myc-tagged NIK; wild type NIK
T3 sequence (Q99558 other isoform, or with tags, fused parts or gaps): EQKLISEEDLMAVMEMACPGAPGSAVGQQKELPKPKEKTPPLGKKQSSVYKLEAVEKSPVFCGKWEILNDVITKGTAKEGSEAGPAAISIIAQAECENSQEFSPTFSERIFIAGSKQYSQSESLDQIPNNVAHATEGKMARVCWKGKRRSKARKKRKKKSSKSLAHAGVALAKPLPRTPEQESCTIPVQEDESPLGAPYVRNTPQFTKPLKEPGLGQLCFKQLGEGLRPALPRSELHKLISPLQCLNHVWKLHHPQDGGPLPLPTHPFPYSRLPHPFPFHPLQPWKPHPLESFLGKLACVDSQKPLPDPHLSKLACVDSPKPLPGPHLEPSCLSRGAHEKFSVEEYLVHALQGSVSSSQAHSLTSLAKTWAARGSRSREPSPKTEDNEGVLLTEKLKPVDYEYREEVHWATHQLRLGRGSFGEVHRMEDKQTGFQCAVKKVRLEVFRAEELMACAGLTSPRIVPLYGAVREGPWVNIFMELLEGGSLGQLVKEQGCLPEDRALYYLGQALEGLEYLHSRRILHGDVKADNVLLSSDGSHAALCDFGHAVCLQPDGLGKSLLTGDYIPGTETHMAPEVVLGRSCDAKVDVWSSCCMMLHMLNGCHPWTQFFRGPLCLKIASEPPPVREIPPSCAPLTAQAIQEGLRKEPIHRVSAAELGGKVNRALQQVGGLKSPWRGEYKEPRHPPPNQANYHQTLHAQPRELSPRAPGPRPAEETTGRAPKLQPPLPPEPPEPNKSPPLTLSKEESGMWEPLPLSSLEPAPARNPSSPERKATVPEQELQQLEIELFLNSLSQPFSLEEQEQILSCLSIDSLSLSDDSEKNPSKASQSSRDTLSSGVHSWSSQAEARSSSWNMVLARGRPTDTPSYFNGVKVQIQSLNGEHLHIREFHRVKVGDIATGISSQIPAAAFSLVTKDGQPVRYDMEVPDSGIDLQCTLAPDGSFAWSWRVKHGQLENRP
Nature of the assay: western blot of the p55 TNF receptor complex from NIK-deficient Ramos cells replenished with NIK (FIG. 6d). As for the experimental part:
Transfections, immunoblotting and immunoprecipitations were performed as described in Example 2 and Example 3 of the Examples section. For immunoprecipitation of the CD70/CD27 ligand-receptor complexes from resting PBMC and Ramos cells, cell lysates were prepared as described for the kinase tests aforementioned and incubated for 4 hours at 4° C. with 25 μl of 50% M2-FLAG agarose beads per ml of lysate. The TNF-receptor complex was precipitated as described (Zhang et al., 2000). The signalosome from cell lysates was immunoprecipitated using a 1:1 mixture of two different antibodies against IKK1 (M-280 and H-744, Santa Cruz). Immunoprecipitation was allowed to continue for 2 hours at 4° C., using 10 μg of anti-IKKα antibodies adsorbed to 25 μl of 50% protein-A-Sepharose beads per ml of lysate.
In NIK− cells, recruitment to the p55 TNF receptor occurred just as effectively as in the wild type cells (FIG. 6c, right panel). In contrast, recruitment of the signalosome components to CD27 was completely abolished (FIGS. 6c, d, left panels). Introduction of the wild type NIK, but not of “kinase-dead” NIK, to the NIK− cells reintated the recruitment in response to CD70 (FIG. 6d, middle and right panels). […] This recruitment could be observed both in cells expressing the wild type enzyme and in those that expressed its “[…]” mutant (FIG. 6d). […]
(In western blotting, separated proteins are transferred to a membrane and probed.)

B1: p55 TNF receptor, endogenous in Ramos cells (receptor, human, UniProt P19438 30-455, looked up)
chain: LVPHLGDREKRDSVCPQGKYIHPQNNSICCTKCHKGTYLYNDCPGPGQDTDCRECESGSFTASENHLRHCLSCSKCRKEMGQVEISSCTVDRDTVCGCRKNQYRHYWSENLFQCFNCSLCLNGTVHLSCQEKQNTVCTCHAGFFLRENECVSCSNCKKSLECTKLCLPQIENVKGTEDSGTTVLLPLVIFFGLCLLSLLFIGLMYRYQRWKSKLYSIVCGKSTPEKEGELEGTTTKPLAPNPSFSPTPGFTPTLGFSPVPSSTFTSSSTYTPGDCPNFAAPRREVAPPYQGADPILATALASDPIPNPLQKWEDSAHKPQSLDTDDPATLYAVVENVPPLRWKEFVRRLGLSDHEIDRLELQNGRCLREAQYSMLATWRRRTPRREATLELLGRVLRDMDLLGCLEDIEEALCGPAALPPAPSLLR
notes: whole, on cells; TNF-receptor complex precipitated as described by Zhang et al., 2000
On to B1, for which the binding result is listed as “binds” with IKK1, endogenous; “binds” in the assay with IKK2, endogenous; “no binding” in assay [1].
